Experiment: soluble on expression in E. coli; label from the status in PepcDB or PDB records

Sequence	soluble on expression in E. coli
MNISPKAIKVRNIWIGGTEPCICAPVVGEDDRKVLREAEEVCRKQPDLLEWRADFFRAIDDQERVLATANGLRNIAGEIPILFTIRSEREGGQPIPLNEAEVRRLIEAICRSGAIDLVDYELAYGERIADVRRMTEECSVWLVVSRHYFDGTPRKETLLADMRQAERYGADIAKVAVMPKSPEDVLVLLQATEEARRELAIPLITMAMGGLGAITRLAGWLFGSAVTFAVGNQSSAPGQIPIDDVRTVLSILQTYSR	soluble
MLLELPATNSALAIKSVLMAMTPNNDAILVVGERGHIINWQNDDNWQQLQSPVSVAITDVTILSDGSKVAVGHDGVILKVDSNSTTWRKVFTGKEITQFQIAQLKQQYQSLEQVILQTQDEDELEELTYQLDDLTFAIEDNQLELKSGPNKPLLSVTSTSNDTLFASGAYGILLSSKDKGETWQLVSNHLDNPDRFHLNTVIATADDQLYIVGENGMGFHSTDVGQTWSVMTLPYSGSLFGILANTVKTHTISTDDINSTKNKTQLVAFGLQGNIMVSLDGGGNWQHIKLPRSTSLLGGNFSKQGKVYLVGHGGVIVSFYPENLSTLTIKKHPSGAALSSVLVKDNSLILAGQFGISQWPIEAEELEHHHHHH	not soluble
MAHHHHHHMSDSEWSSDSGVSNAEAIAAASLNKHLGELMTLQHPSRVTHRRPAYATSEGTTASSATISHTPRVSGEAPRKQARMDISSLIRQALSQSSAHCTSANVDEVAGRVVAALRQKAGGAEVARAVTRALADPLNEELRESVLSGLLRPEELVALDEVSLLNQAERSVLAKARRERLNQHSVEYLERLNLTVTNMLTCPECRSHECYANFRFTDFVKWQGDDQTPTLQRCCRCSVSFCNERGKRAASAPGACLCAWVAVKVLSATTASRPCIHPSSNRHRTARRGSTRETGKISRFSSCRTRHHFCQKR	not soluble
GMISDSISKRRSIRKYKNQSISHETIEKIIEAGINAPSSKNRQPWRFVVITEKEKESMLKAMSKGIQNEINDNGLLPGSRQHIAGANYTVEIMKQAPVTIFILNILGKSPLEKLSPEERFYEMANMQSIGAAIQNMSLTAVELGLGSLWICDVYFAYRELCEWLNTDSQLVAAISLGYPDEEPSRRPRLQLSDVTEWR	soluble
MADDRGVFPGQWALSGGGVESGERIEEALRREIREELGEQLLLTEITPWTFSDDIRTKTYADGRKEEIYMIYLIFDCVSANREVKINEEFQDYAWVKPEDLVHYDLNVATRKTLRLKGLL	not soluble
MLSVENLKVVYRGVILALDGVSLEVGEGEAVALLGPNGAGKSSLVRTIAGLLPKFEGRVLDGKVRLFGREATHLDPVGISRLGLTAILEGRPLFRYLTPVENLMAAGHRLPPKALKEGMEEVFARFPRLYERRHEQAGYLSGGEQQMLLLGMALLTRPRLLVVDEPSLGLAPKLVGEVMQTLDALRREKGLSLLLVEQNARAALGVVDRVYVLERGRVVFEGSAKEAMEDQDVMEFYLGKEEVGFRQARRYRRRKRWV	soluble
SMKLKSNQTRTYDGDGYKKRAACLCFRNDTEQEVLLVSSSRHPDKWIVPGGGMEPEEEPNVAAAREVCEEAGVKGTLGRLVGIFENRDRKHRTYVYVLIVTEVLEDWEDSVNIGRKREWFKIDDAIQVLQCHKPVQASYFTALQEGCLNSNGTPLVATIGGGDLSPTYSINQSSVSDMR	soluble
MGSDKIHHHHHHMLIVREFSNRFQQMSGMPINSNETKERLKAAGIDINSKQYRAVMSEMSRDGGGGYTTISAIKKRMSRYDKDGDWINPRTGLAGLLVTDKNCASKNRIVSISESIMDEMFESTKKEFFMENGVHNGDTTNRSEIYQKLYQQTEKNDRLAAGYTLEEYERQYWQAFTDAVKVADPKWEAGKPIMPGVLDRITSKSIDALLVKSGSQLIRKSFERMI	not soluble
MRDLSHALGSGEPYPGDPPAAVTPHATMAADGYRVSAVACSTHSGTHIDAPSHLLADGRSLDAFDVSAFRFDAHVVDCTGYGPEDAIPVDRVPALDDHDMVVFNTGTAADWGRPEYYEHPHLSVAAAERCADAGCAVAVDAPSVDPTRTAPAGESSDAAAYPAHRALLGAGALIVENVTNLDGLPERVPVQAYPLPVAADGAPARVIAAPLEHHHHHH	soluble
MGCLLFLLLWALLQAWGSAEVPQRLFPLRCLQISSFANSSWTRTDGLAWLGELQTHSWSNDSDTVRSLKPWSQGTFSDQQWETLQHIFRVYRSSFTRDVKEFAKMLRLSYPLELQVSAGCEVHPGNASNNFFHVAFQGKDILSFQGTSWEPTQEAPLWVNLAIQVLNQDKWTRETVQWLLNGTCPQFVSGLLESGKSELKKQVKPKAWLSRGPSPGPGRLLLVCHVSGFYPKPVWVKWMRGEQEQQGTQPGDILPNADETWYLRATLDVVAGEAAGLSCRVKHSSLEGQDIVL	soluble
MDETTIRRLTEEDVDIFRAMRLEALRTEPAAYASTAADWEKLSADEWRTRLTQNNVFAAFWNDAPVGIMGLMRQGSSKMAHRATLIMVYVRAEARGTGIARALLEAVKSFAGDNGIRQIELAVSAENPAAASFYKRAGFSQIGCVPGGILHEGREIDDIMMACRVDAEGKE	not soluble
MGSDKIHHHHHHMAETFPLLAAQPIYDNKNRFYAVELLYRSALNLTAETVGDTAATSEVVFNLCAGITSQTEHYDATAFINVSSEFLVSQSFLPLEPDKVVIELVERIKPTRAVVNAVARWYEKGFRFALDDFEFDPAWEPLLQYASYIKVDVSTLTLAQARVFKQKLSGFKGKWLAERVEDEATKQAYEELGFELFQGYYFAKPAIVYGTRLEPSSLQLAKVLSLCFEEEPDLTELSRVISEDPQLSVCLLKIVNSPLYPTASPITRVKDVIMRLGIEKLRRWIALIGAVTASSPEASRMVLVRAQMCYELAKWKSSPGLDADQCYFVGLLSGVDIMLGVDKASFFEKLPLSEQTRKAVEDCDGPMGQCLRIALKLERLVRMKEGLDKVDSRLLTTYQSVSTKVQELFNTI	not soluble
QDSPNAIKAAVISSPMLGFYSGLLPKSIAKILVAIKLKFNNIISNTPWYFLGQKDYSPVNFTDNKLTHSIPRYQYFVDLYKKNKIIQLGGVTTHWLAQSIAAQKELFSKIVQLKTPILLLQASGDTVVCQQAQDDFCQQLHTLQPQSCPNGVPSNIDNAFHELFFETDDLRNKAITQSLAWFEQH	not soluble
MSLWRSTVARAPLDARERKNLVAHVQSAQAHESAQHAELAKLRASVNVMKAAEATPRNDEAGQDSAMIPMAGPGVRIILDDANAAPADELGDKDMRKLVNAVWQSGAEAVAINGHRIGPRTAIRSAGSAITVDYVSLSRPYVVEAIGSPQKLPAELADTPGGRWMTYLRDNSSITYQVTTKDRVSVPGSKASVSHARPHREGHHHHHH	soluble
MGHHHHHHSHPLKMETSGMTTPSLKTDGGRRTATSPPPTTSQTIISTIPSTAMHTRSTAAPIPILPERGVSLFPYGADAGDLEFVRRTVDFTSPLFKPATGFPLGSSLRDSLYASQAGTLWPWWLRSGTMLTSPLVGGPHFIRNTRRSMVNTAC	not soluble
GMATLGANASLYSEQHRITYYECDRTGRATLTTLIDIAVLASEDQSDALGLTTEMVQSHGVGWVVTQYAIDITRMPRQDEVVTIAVRGSAYNPYFAYREFWIRDADGQQLAYITSIWVMMSQTTRRIVKILPELVAPYQSEVVKRIPRLPRPISFEATDTTITKPYHVRFFDIDPNRHVNNAHYFDWLVDTLPATFLLQHDLVHVDVRYENEVKYGQTVTAHANILPSEVADQVTTSHLIEVDDEKCCEVTIQWRTLPEPIQ	soluble
MGSDKIHHHHHHVGRIEGQACPATGIWLLPARRQTAYRIQKTSYSALSAPARMDGTDRLAWGRYDTVGTTLYLAENAECAFSETLSPFKRAIGTVDPLRKDADALGMTLEDFYEEVAYQWQEKSFMNSGTLPRIWRTERQLHIVELPFPGWWIDVEHPETMAAVEAAIPDTLKDLGITHVDTSLLRSNRRDVTTAIADHLRDLVLFDGSYAPGIKFGSRHGAYLNWAVWLRDHDLQLSGDDGLVHLGESPISFNDPDLEAASRRFRLKVF	not soluble
MGSDKIHHHHHHMRKMRKASRLFEIIQILRLARQPVTAAMIAERLEVTIRSIYRDIAALQAMRVPIEGGRGIGYILRPGFDLPPLMFSIEEMEAIVLSLALLERTGDDELKQAAKRVSSKIAGAVPPPLRQTFDANALHAWGFAAPSAGTIDLALVRRAIRDEEKLDLSYRDEAGRTTQRIIRPIALIYYAEAVNTVAWCELRQAIRNFRSDRIEGCQPTGLHFKGEGDRLRQIWVEGWETPAVGG	not soluble
MSDVPHLRFPEFSGEWEEHTLSEYLEFKNGLNPDAKRIGSGLPFISVMDILSEGVINYDNIRGKVNATEKEIECFGVKDGDLLFQRSSETLEDVGRANVYMDNRTAIYGGFVIRGRKIGNYDPLFFKYLLATPLARKRTCRMGAGAQHFNIGQEGLSKISLYFPSIEEQRKIAEFLSLIDERIATQNKIIEDLKKLKSAISLNVLHSDKWEQFKIKDIAQIGRGRVISSIEIGQQKSPTYPVYSSQTSNDGIMGYLDDYMFEGEYISWTTDGANAGTVFYRNGKFNCTNVCGLLKLRKEFDTHFVSLVLAEATKKYVSINLANPKLMNNTMGNIQIRLPKLEEQKRISIVFRVLQRLWTVHNSLLTEYTKQEQYLLSQMFILEHHHHHH	not soluble
MLSIKQLSYALAVSKTLHFRKAADLCHVRQSTLSTGVSELERQLGIKIFERDNKKVLVTPLGREVLDKASNIMLQLEDMAHLDHSCGEP	not soluble
MSLKITRITVYQVDLPLEHPYWLSGGRLKFELLDATLVKLETDAGITGWGEGTPWGHTYVPAHGPGIRAGIETMAPFVLGLDPRRLLDVERAMDIALPGHLYAKSPIDMACWDIAGQAAGLPIADLMGGGSRTPRPIASSVGAKSVEETRAVIDRYRQRGYVAHSVKIGGDVERDIARIRDVEDIREPGEIVLYDVNRGWTRQQALRVMRATEDLHVMFEQPGETLDDIAAIRPLHSAPVSVDECLVTLQDAARVARDGLAEVFGIKLNRVGGLTRAARMRDIALTHGIDMFVMATGGSVLADAEALHLAATIPDHACHAVWACQDMLTVDIAGGRGPRNIDGHLHLPETPGLGVHPDEDALGDPVAVYSEGHHHHHH	soluble
SKSRRWVFALRHGERVDLTYGPWVPHCFENDTYVRKDLNLPLKLAHRAGGKGGYVKDTPLTRLGWFQAQLVGEGMRMAGVSIKHVYASPALRCVETAQGFLDGLRADPSVKIKVEPGLFEFKNWHMPKGIDFMTPIELCKAGLNVDMTYKPYVEMDASAETMDEFFKRGEVAMQAAVNDTEKDGGNVIFIGHAITLDQMVGALHRLRDDMEDVQPYEIGRNLLKVPYCALGAMRGKPWDVVSPPCPPSINSSSGRFDWRILIK	soluble
MRIEKVDTFPLFHKLSSPYGDANGLKSYRTSYLIRITTASGLTGWGECADWLPALDAGFKKRIIPYLIGKEASNRTELITVIKKWHQRAASAVSMALTDITAKKAGLSVCELWGGKLREQIPVYASFQSYSDRPDWSRHSLRLIEKAVRAGFKAVKLKAGGKMFSEDLAHIQAFQEMTGQSTGLILDANQSYDQAAARKWETWFSGWQNVLWFEEPMPFDDLAEYRMLRSALSVPVAGGENVKGAKPFLPIFLENAVDIAQPDVMHCEGTDEFQTVLKLARHFGKRVSPHSYDGGLSRIYAAFGQACLPHWTKMDGEDIEPLEWDAMENPFAQIVPVSIKDGCIQVPDKIEIDTELVEAYVWDGSSYI	soluble
NQKMIASAFNNALGAIQDGFDATNSALGKIQSVVNANAEALNNLLNQLSLVPRGSGGSGGSGGLNVTLLDLTYEMNRIQDAIKKLNESYINLKE	soluble
MCKMEITDLIKGMESANVSDIYIFLHEDGPVAFDASAAHLLCYFPEMEMESVFCSDSKRHRIIQGFALEPVLERLAQYPCLVDDDCIRIMGVL	not soluble

From the DeepSol protein solubility set
